According to PMC7530023:

Biological target: unmodified (unphosphorylated) recombinant tau, human 1N4R isoform (human)
Test: thioflavin S fluorescence aggregation assay

net increase of ThS fluorescence (9 μM tau) (units of ThS fluorescence): 41 | net increase of ThS fluorescence (18 μM tau) (units of ThS fluorescence): 54
Substance: unmodified (unphosphorylated) recombinant tau, human 1N4R isoform (natural protein)
